Data published in US7128911.

Molecular target: T1, C-RANKL protein (RANKL fragment with N-terminal cysteine-containing amino acid linker and hexa-histidine tag, … (mouse, UniProt O35235 137-316))
T1 construct: Coated on ELISA plates at 10 ug/ml
T1 sequence: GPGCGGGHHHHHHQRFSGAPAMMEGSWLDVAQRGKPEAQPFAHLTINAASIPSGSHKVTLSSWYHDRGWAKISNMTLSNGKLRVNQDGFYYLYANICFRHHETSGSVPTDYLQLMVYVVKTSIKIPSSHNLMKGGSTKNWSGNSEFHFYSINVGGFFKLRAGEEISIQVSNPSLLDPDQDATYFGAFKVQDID
Assay: ELISA, plates coated with 10 ug/ml C-RANKL, serial dilutions of RANK-Fc, anti-Fc-HRP detection

B1: purified RANK-Fc fusion protein (Fc fusion)
chain: VTPPCTQERHYEHLGRCCSRCEPGKYLSSKCTPTSDSVCLPCGPDEYLDTWNEEDKCLLHKVCDAGKALVAVDPGNHTAPRRCACTAGYHWNSDCECCRRNTECAPGFGAQHPLQLNKDTVCTPCLLGFFSDVFSSTDKCKPWTNCTLLGKLEAHQGTTESDVVCSSSMTLRRPPKEAQAYLPS
- EC50: 1 to 3 nM
